The target in this experiment is Recombinant ligand-binding domain of McpC (amino acid residues 35-189) (Salmonella enterica serovar Typhimurium SL1344). Kind of experiment: AUC; sedimentation velocity analytical ultracentrifugation (SV-AUC), done commercially (KBI BioPharma); purified McpC ligand-binding domain; dimers present at >=4 mg/mL; monomer to dimer.

Turning to “Recombinant ligand-binding domain of McpC (amino acid residues 35-189) (domain or fragment)”, the stoichiometry N was 2.

The values above are taken from article PMC7806825.
